From patent publication US20150037312A1 (University of Washington, published 2015) come the findings set out here.

This experiment deals with T1, Rituximab (human IgG1), biotinylated (human).
T1 construct: Whole IgG; In the first screen it was oligomerized with streptavidin-phycoerythrin; in SPR it was captured on a streptavidin chip; also called Rituxan; IgG1 Rituxan
In words: titration of biotinylated Rituxan on yeast displaying the clone; pH 8 implied.

Protocol: We then determined the Kd of exemplary isolated clones for IgG at different pHs. Measurements were taken via titrations of biotinylated Rituxan (Rituximab) using yeast surface display as discussed in the materials and methods sections.
Yeast cells (EBY100) containing plasmid encoding the designs, were grown overnight at 30° C. in SDCAA medium. For induction, they were sub-cultured into SGCAA to achieve an O.D. of 1, and grown at 22° C. for 16-20 h. Cells were washed once with PBS containing 0.5% BSA (PBS-BSA), before adding 700 nM biotinylated IgG (Rituximab) into a total volume of 50 μl of the same buffer. […] Cells were washed once with ice cold PBS-BSA immediately before measuring their fluorescence via an Accuri C6 flow cytometer, data was analyzed using the FlowJo 7.6.1 and 8.8.7 software.

B1: FcB6.1 (designed binder)
chain: PEEALIVVDMQRDFMPGGALPVPEGDKIIPKVNEYIRKFKEKGALIVATRDWHPENHISFRERGGPWPRHCVQNTPGAEFVVDLPEDAVIISKATEPDKEAYSGFEGTDLAKILRGNGVKRVYICGVATEYCVSRTAVDALKHGFEVYLLRDAVKGIKPTFEQQSFFYMSLKGIKIVQF
notes: Clone from the pH 8 selection of the focused library; also called Fc24.47
In general, Kd refers to the free concentration of one partner at which half of the binding sites on the other are occupied at equilibrium, for simple one-to-one binding. Turning to B1, the dissociation constant Kd was approximately 2 nM.
